Experimental findings from PMC8092703, “Structural Basis for the Shared Neutralization Mechanism of Three Classes of Human Papillomavirus Type 58 Antibodies with Disparate Modes of Binding” (Journal of Virology, 2021) are described below.

The target in assay [1] is T1, HPV58 pseudovirus (PsV58) capsid (human papillomavirus type 58, UniProt P26535 1-524; P26538 1-472).
T1 sequence 1: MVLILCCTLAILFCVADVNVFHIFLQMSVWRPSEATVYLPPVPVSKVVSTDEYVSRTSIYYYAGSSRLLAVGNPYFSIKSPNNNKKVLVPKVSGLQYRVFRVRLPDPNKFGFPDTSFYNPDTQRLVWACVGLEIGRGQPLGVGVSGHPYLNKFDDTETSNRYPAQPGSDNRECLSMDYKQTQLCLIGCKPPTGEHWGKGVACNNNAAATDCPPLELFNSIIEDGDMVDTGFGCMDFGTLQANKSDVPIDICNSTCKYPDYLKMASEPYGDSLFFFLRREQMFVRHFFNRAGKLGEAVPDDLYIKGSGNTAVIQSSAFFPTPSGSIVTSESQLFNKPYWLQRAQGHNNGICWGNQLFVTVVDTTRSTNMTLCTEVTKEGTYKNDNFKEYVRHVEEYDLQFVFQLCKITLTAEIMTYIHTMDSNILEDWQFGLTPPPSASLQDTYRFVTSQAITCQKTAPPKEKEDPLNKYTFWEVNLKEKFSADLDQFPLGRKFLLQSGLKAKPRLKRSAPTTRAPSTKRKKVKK
T1 sequence 2: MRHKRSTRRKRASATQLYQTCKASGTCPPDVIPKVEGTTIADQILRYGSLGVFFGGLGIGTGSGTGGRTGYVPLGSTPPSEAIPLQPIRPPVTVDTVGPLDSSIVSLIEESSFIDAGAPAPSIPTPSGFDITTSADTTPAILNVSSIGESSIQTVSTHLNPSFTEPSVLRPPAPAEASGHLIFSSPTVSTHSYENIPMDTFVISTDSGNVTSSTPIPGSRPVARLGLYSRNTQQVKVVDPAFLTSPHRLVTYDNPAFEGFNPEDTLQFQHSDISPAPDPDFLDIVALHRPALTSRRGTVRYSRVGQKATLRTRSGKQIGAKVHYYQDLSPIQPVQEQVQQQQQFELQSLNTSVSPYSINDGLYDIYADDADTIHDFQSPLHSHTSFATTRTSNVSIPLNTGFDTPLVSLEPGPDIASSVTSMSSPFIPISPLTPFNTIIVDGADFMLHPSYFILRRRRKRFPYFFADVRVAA
Kind of assay: cell-based or functional assay.

Assay [2] concerns the target HPV58 virus-like particles (VLPs) self-assembled from recombinant HPV58 L1 (human papillomavirus type 58, UniProt P26535 1-524, The printed source is GenBank AFS33402.1, which may differ from P26535 at isolate-variant positions. The start is taken by convention at MSVWRPSE (Met27 of P26535), and paper numbering + 26 = P26535 n). The assay can be described thus: ELISA; inhibition ELISA; HPV58 VLPs coated; diluted monoclonal antibody 1 h at 37°C, then rabbit standard antiserum against HPV58 VLPs 30 min at 37°C; HRP goat anti-rabbit IgG; inhibition rate. The following applies: both partners purified. (In general: ELISA stands for enzyme-linked immunosorbent assay.)

Assay [3] concerns the target T2, HPV58 pseudovirus (PsV58) capsid (human papillomavirus type 58, UniProt P26535 1-524; P26538 1-472, T=7d capsid of 72 L1 pentamers. L2 copy number is unknown and no L2 density was seen. Expressed from p58sheLL, whose L1 and L2 may carry isolate-variant residues.). The assay can be described thus: cell-based or functional assay.
In assay [4] the target is T2, HPV58 pseudovirus (PsV58) capsid. Kind of assay: cryo-EM structure; purified PsV58 mixed with Fab in 1.5-fold excess (pseudovirus-Fab molar ratio 1:540), 37°C for 2 h; icosahedral and 2-fold subparticle reconstruction. Particulars: both partners purified.

B1: nAb A4B4 (anti-HPV58 neutralizing monoclonal antibody, full length) (antibody, V domains shown)
VH: QVTLKESGPGILQPSQTLSLTCSFSGFSLSTSGMGVGWIRQPSGKGLEWLAHIWWNDDKNYHPALKSRLTISKDTSSNRVFLNIASVDTADTATYYCARIHYVTDALDYWGQGTSVTVS
VL: DIVMSQSPSSLAVSVGEKVTMSCKSSQSLLYSSIQKNYLAWYQQKPGQSPKLLIYWASIRESGVPDRFTGSGSGTDFTLTISSVKAEDLAVYYCQRYYGYPWTFGGGTKLEIKR
notes: variable domain of the heavy chain of nAb A4B4; variable domain of the light chain of nAb A4B4; Mouse IgG2a; source: mouse hybridoma, ascites of BALB/c mice, purified (protein A-agarose)
Regarding B1, the “neutralization titer, pseudovirus-based neutralization assay in 293FT cells (first well 1 μg/ml nAb, 2-fold dilutions)” value in assay [1] was determined as 12800. Moreover, the “inhibition rate of the nAb against rabbit antiserum to HPV58 VLPs” value (from here on “inhibition rate of the nAb”) in assay [2] amounted to 71%.

B2: Fab fragment of nAb A4B4 (Fab, V domains shown)
VH: B1 VH
VL: B1 VL
notes: variable domain of the heavy chain of nAb A4B4; variable domain of the light chain of nAb A4B4; Fab of a mouse IgG2a; the Fab model in the structure is a homology model; also called Fab A4B4; A4B4 Fab; source: papain digest of the purified nAb, separated from Fc on a TSKgel DEAE-5PW column
As to B2, in assay [3], the “IC50 of neutralization of PsV58 by the Fab form” value worked out at 1.28 µg/mL. In addition, the stoichiometry N (commonly the number of molecules, sites or subunits per partner or assembly) in assay [4] worked out at 4 Fabs per asymmetric unit.

B3: nAb 2H3 (anti-HPV58 neutralizing monoclonal antibody, full length) (antibody, V domains shown)
VH: QVQLLQSGAELVRPGSSVKISCKASGYVFTSYWMHWVKQRPGQGLEWIGQIYPGDGGTHYNGNFRDKATLTADKSSSTAYMHLSSLTSEDSAVYFCARKIYDGYGFSYWGQGTLVTVS
VL: DIQMTQSPASLSVSVGETVTITCRASENIYSNLIWYQQKQGKSPQLLVYAATNLADGVPSRFSGSGSGTQYSLKINSLQSEDFGSYYCQHFWGTPLTFGAGTKLEIKR
notes: variable domain of the heavy chain of nAb 2H3; variable domain of the light chain of nAb 2H3; Mouse IgG1; source: mouse hybridoma, ascites of BALB/c mice, purified (protein A-agarose)
As for B3, the “neutralization titer, pseudovirus-based neutralization assay in 293FT cells (first well 1 μg/ml nAb, 2-fold dilutions)” value in assay [1] was determined as 51200. Moreover, in assay [2], the “inhibition rate of the nAb” value turned out to be 87%.

B4: Fab fragment of nAb 2H3 (Fab, V domains shown)
VH: B3 VH
VL: B3 VL
notes: variable domain of the heavy chain of nAb 2H3; variable domain of the light chain of nAb 2H3; Fab of a mouse IgG1; the Fab model in the structure is a homology model; also called Fab 2H3; 2H3 Fab; source: papain digest of the purified nAb, separated from Fc on a TSKgel DEAE-5PW column
In the case of B4, in assay [4], the “stoichiometry N” value is 4 Fabs per asymmetric unit.

B5: nAb 5G9 (anti-HPV58 neutralizing monoclonal antibody, full length) (antibody, V domains shown)
VH: EVMLVESGGGLVKPGGSLKLSCVASGFTFSDYAMSWGRQTPEKRLEWVATISSGGVSTYHPDSVKGRFTMSRDNAKNTLYLQMSSLRSEDTAKYYCARGGGRYAMDYWGQGTSVTVS
VL: DVQITQSPSYLAASPGETITINCRASKSINKYLAWYQEKPGTTNKLLIYSGSTLQSGIPSRFSGRGSGTDFTLTISSLEPEDLAVYYCQQYNEYPWTFGGGTKLEIKR
notes: variable domain of the heavy chain of nAb 5G9; variable domain of the light chain of nAb 5G9; Mouse IgG2a; source: mouse hybridoma, ascites of BALB/c mice, purified (protein A-agarose)
Turning to B5, the “neutralization titer, pseudovirus-based neutralization assay in 293FT cells (first well 1 μg/ml nAb, 2-fold dilutions)” value in assay [1] stood at 410000. Moreover, in assay [2], the “inhibition rate of the nAb” value is 59%.

B6: Fab fragment of nAb 5G9 (Fab, V domains shown)
VH: B5 VH
VL: B5 VL
notes: variable domain of the heavy chain of nAb 5G9; variable domain of the light chain of nAb 5G9; Fab of a mouse IgG2a; the Fab model in the structure is a homology model; also called Fab 5G9; 5G9 Fab; source: papain digest of the purified nAb, separated from Fc on a TSKgel DEAE-5PW column
For B6, the “stoichiometry N” value in assay [4] was 1 Fab per capsomer.
